Measured values published in article PMC6212729 (Nucleic Acids Research, 2018).

B2: Human WT emerin fragment from amino acid 1 to amino acid 187 (EmN) (domain or fragment, UniProt P50402 1-187, looked up)
chain: MDNYADLSDTELTTLLRRYNIPHGPVVGSTRRLYEKKIFEYETQRRRLSPPSSSAASSYSFSDLNSTRGDADMYDLPKKEDALLYQSKGYNDDYYEESYFTTRTYGEPESAGPSRAVRQSVTSFPDADAFHHQVHDDDLLSSSEEECKDRERPMYGRDSAYQSITHYRPVSASRSSLDLSYYPTSSS

Legend:
[1] = biological target: Human Barrier-to-Autointegration Factor (BAF) with all cysteines mutated in alanine (human) (UniProt O75531); experiment: ITC
[2] = biological target: Human Barrier-to-Autointegration Factor (BAF) with all cysteines mutated in alanine (human) (UniProt O75531); experiment: crystal structure
[3] = biological target: the molecule itself; experiment: negative-staining electron microscopy
[4] = biological target: Human Barrier-to-Autointegration Factor (BAF) with all cysteines mutated in alanine (human) (UniProt O75531); experiment: ITC; remark: listed apart in the source
[5] = biological target: B2; experiment: NMR titration
[6] = biological target: T1, GFP-BAF (full length BAF) (UniProt O75531 1-89); experiment: proximity ligation
T1 sequence (looked up): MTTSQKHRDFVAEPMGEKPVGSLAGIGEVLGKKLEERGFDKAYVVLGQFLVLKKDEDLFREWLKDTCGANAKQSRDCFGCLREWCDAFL

## LamIgF mutant A529V (from UniProt P02545 411-566) (domain or fragment)
[1]
  fold decrease of affinity against LamIgF WT: 5 fold

## LamIgF mutant R471C (from UniProt P02545 411-566) (domain or fragment)
[1]
  fold decrease of affinity against LamIgF WT: 5 fold

## Human Barrier-to-Autointegration Factor (BAF) with all cysteines mutated in alanine (from UniProt O75531 2-76) (natural protein)
[2]
  stoichiometry N: 2

B1: Human WT emerin fragment from amino acid 67 to amino acid 221 (EmC) (domain or fragment, UniProt P50402 67-221, looked up)
chain: TRGDADMYDLPKKEDALLYQSKGYNDDYYEESYFTTRTYGEPESAGPSRAVRQSVTSFPDADAFHHQVHDDDLLSSSEEECKDRERPMYGRDSAYQSITHYRPVSASRSSLDLSYYPTSSSTSFMSSSSSSSSWLTRRAIRPENRAPGAGLGQDR
[3]
  binding result: binds

## B2
[3]
  binding result: binds
[4]
  Kd: 700 nM

B3: Human wild-type lamin A/C fragment from amino acid 411 to amino acid 566 (LamIgF) (domain or fragment, UniProt P02545 411-566, looked up)
chain: GGGSVTKKRKLESTESRSSFSQHARTSGRVAVEEVDEEGKFVRLRNKSNEDQSMGNWQIKRQNGDDPLLTYRFPPKFTLKAGQVVTIWAAGAGATHSPPTDLVWKAQNTWGCGNSLRTALINSTGEEVAMRKLVRSVTVVEDDEDEDGDDLLHHHH
[5]
  binding result: binds

B4: FLAG-mature lamin A (aa 1 to aa 646) A529V (natural protein, UniProt P02545 1-646, looked up)
chain: METPSQRRATRSGAQASSTPLSPTRITRLQEKEDLQELNDRLAVYIDRVRSLETENAGLRLRITESEEVVSREVSGIKAAYEAELGDARKTLDSVAKERARLQLELSKVREEFKELKARNTKKEGDLIAAQARLKDLEALLNSKEAALSTALSEKRTLEGELHDLRGQVAKLEAALGEAKKQLQDEMLRRVDAENRLQTMKEELDFQKNIYSEELRETKRRHETRLVEIDNGKQREFESRLADALQELRAQHEDQVEQYKKELEKTYSAKLDNARQSAERNSNLVGAAHEELQQSRIRIDSLSAQLSQLQKQLAAKEAKLRDLEDSLARERDTSRRLLAEKEREMAEMRARMQQQLDEYQELLDIKLALDMEIHAYRKLLEGEEERLRLSPSPTSQRSRGRASSHSSQTQGGGSVTKKRKLESTESRSSFSQHARTSGRVAVEEVDEEGKFVRLRNKSNEDQSMGNWQIKRQNGDDPLLTYRFPPKFTLKAGQVVTIWAAGAGATHSPPTDLVWKAQNTWGCGNSLRTVLINSTGEEVAMRKLVRSVTVVEDDEDEDGDDLLHHHHGSHCSSSGDPAEYNLRSRTVLCGTCGQPADKASASGSGAQVGGPISSGSSASSVTVTRSYRSVGGSGGGSFGDNLVTRSY
[6]
  PLA signals as percent of WT lamin A: ~50 % of WT

B5: FLAG-mature lamin A (aa 1 to aa 646) R527H (natural protein, UniProt P02545 1-646, looked up)
chain: METPSQRRATRSGAQASSTPLSPTRITRLQEKEDLQELNDRLAVYIDRVRSLETENAGLRLRITESEEVVSREVSGIKAAYEAELGDARKTLDSVAKERARLQLELSKVREEFKELKARNTKKEGDLIAAQARLKDLEALLNSKEAALSTALSEKRTLEGELHDLRGQVAKLEAALGEAKKQLQDEMLRRVDAENRLQTMKEELDFQKNIYSEELRETKRRHETRLVEIDNGKQREFESRLADALQELRAQHEDQVEQYKKELEKTYSAKLDNARQSAERNSNLVGAAHEELQQSRIRIDSLSAQLSQLQKQLAAKEAKLRDLEDSLARERDTSRRLLAEKEREMAEMRARMQQQLDEYQELLDIKLALDMEIHAYRKLLEGEEERLRLSPSPTSQRSRGRASSHSSQTQGGGSVTKKRKLESTESRSSFSQHARTSGRVAVEEVDEEGKFVRLRNKSNEDQSMGNWQIKRQNGDDPLLTYRFPPKFTLKAGQVVTIWAAGAGATHSPPTDLVWKAQNTWGCGNSLHTALINSTGEEVAMRKLVRSVTVVEDDEDEDGDDLLHHHHGSHCSSSGDPAEYNLRSRTVLCGTCGQPADKASASGSGAQVGGPISSGSSASSVTVTRSYRSVGGSGGGSFGDNLVTRSY
[6]
  PLA signals as percent of WT lamin A: ~50 % of WT

B6: FLAG-mature lamin A (aa 1 to aa 646) R435C (natural protein, UniProt P02545 1-646, looked up)
chain: METPSQRRATRSGAQASSTPLSPTRITRLQEKEDLQELNDRLAVYIDRVRSLETENAGLRLRITESEEVVSREVSGIKAAYEAELGDARKTLDSVAKERARLQLELSKVREEFKELKARNTKKEGDLIAAQARLKDLEALLNSKEAALSTALSEKRTLEGELHDLRGQVAKLEAALGEAKKQLQDEMLRRVDAENRLQTMKEELDFQKNIYSEELRETKRRHETRLVEIDNGKQREFESRLADALQELRAQHEDQVEQYKKELEKTYSAKLDNARQSAERNSNLVGAAHEELQQSRIRIDSLSAQLSQLQKQLAAKEAKLRDLEDSLARERDTSRRLLAEKEREMAEMRARMQQQLDEYQELLDIKLALDMEIHAYRKLLEGEEERLRLSPSPTSQRSRGRASSHSSQTQGGGSVTKKRKLESTESRSSFSQHACTSGRVAVEEVDEEGKFVRLRNKSNEDQSMGNWQIKRQNGDDPLLTYRFPPKFTLKAGQVVTIWAAGAGATHSPPTDLVWKAQNTWGCGNSLRTALINSTGEEVAMRKLVRSVTVVEDDEDEDGDDLLHHHHGSHCSSSGDPAEYNLRSRTVLCGTCGQPADKASASGSGAQVGGPISSGSSASSVTVTRSYRSVGGSGGGSFGDNLVTRSY
[6]
  PLA signals as percent of WT lamin A: ~50 % of WT

B7: FLAG-mature lamin A (aa 1 to aa 646) K542N (natural protein, UniProt P02545 1-646, looked up)
chain: METPSQRRATRSGAQASSTPLSPTRITRLQEKEDLQELNDRLAVYIDRVRSLETENAGLRLRITESEEVVSREVSGIKAAYEAELGDARKTLDSVAKERARLQLELSKVREEFKELKARNTKKEGDLIAAQARLKDLEALLNSKEAALSTALSEKRTLEGELHDLRGQVAKLEAALGEAKKQLQDEMLRRVDAENRLQTMKEELDFQKNIYSEELRETKRRHETRLVEIDNGKQREFESRLADALQELRAQHEDQVEQYKKELEKTYSAKLDNARQSAERNSNLVGAAHEELQQSRIRIDSLSAQLSQLQKQLAAKEAKLRDLEDSLARERDTSRRLLAEKEREMAEMRARMQQQLDEYQELLDIKLALDMEIHAYRKLLEGEEERLRLSPSPTSQRSRGRASSHSSQTQGGGSVTKKRKLESTESRSSFSQHARTSGRVAVEEVDEEGKFVRLRNKSNEDQSMGNWQIKRQNGDDPLLTYRFPPKFTLKAGQVVTIWAAGAGATHSPPTDLVWKAQNTWGCGNSLRTALINSTGEEVAMRNLVRSVTVVEDDEDEDGDDLLHHHHGSHCSSSGDPAEYNLRSRTVLCGTCGQPADKASASGSGAQVGGPISSGSSASSVTVTRSYRSVGGSGGGSFGDNLVTRSY
[6]
  PLA signals as percent of WT lamin A: ~50 % of WT
